Laboratory results reported in patent publication US20250327069A1 (CORNELL UNIVERSITY, published 2025).

Experiments:
[1] = system: I-F1 PA14 Csy complex with Cas2/3 (Pseudomonas aeruginosa PA14); assay: cell_activity; conditions: CC PAM; interference assay, completely depleted
[2] = system: Tn6900 Cascade-TniQ wild type (with TnsABC) (Aeromonas salmonicida S44); assay: cell_activity; conditions: CC PAM in transposition screen; about 3-fold
[3] = system: Tn6900 Cascade-TniQ, Cas8/5 A247Q+S248N Cas8/5 A247Q,S248N (Aeromonas salmonicida S44); assay: cell_activity; conditions: over half of transposition events at PAMs with -1 C
[4] = target: the molecule itself; assay: cryo-EM structure of the Cascade-TniQ full R-loop complex
[5] = target: T1, Cas8/5 protein of the I-F3b Tn6900 Cascade (Aeromonas salmonicida S44 (Tn6900 …)); assay: as above
T1 chain: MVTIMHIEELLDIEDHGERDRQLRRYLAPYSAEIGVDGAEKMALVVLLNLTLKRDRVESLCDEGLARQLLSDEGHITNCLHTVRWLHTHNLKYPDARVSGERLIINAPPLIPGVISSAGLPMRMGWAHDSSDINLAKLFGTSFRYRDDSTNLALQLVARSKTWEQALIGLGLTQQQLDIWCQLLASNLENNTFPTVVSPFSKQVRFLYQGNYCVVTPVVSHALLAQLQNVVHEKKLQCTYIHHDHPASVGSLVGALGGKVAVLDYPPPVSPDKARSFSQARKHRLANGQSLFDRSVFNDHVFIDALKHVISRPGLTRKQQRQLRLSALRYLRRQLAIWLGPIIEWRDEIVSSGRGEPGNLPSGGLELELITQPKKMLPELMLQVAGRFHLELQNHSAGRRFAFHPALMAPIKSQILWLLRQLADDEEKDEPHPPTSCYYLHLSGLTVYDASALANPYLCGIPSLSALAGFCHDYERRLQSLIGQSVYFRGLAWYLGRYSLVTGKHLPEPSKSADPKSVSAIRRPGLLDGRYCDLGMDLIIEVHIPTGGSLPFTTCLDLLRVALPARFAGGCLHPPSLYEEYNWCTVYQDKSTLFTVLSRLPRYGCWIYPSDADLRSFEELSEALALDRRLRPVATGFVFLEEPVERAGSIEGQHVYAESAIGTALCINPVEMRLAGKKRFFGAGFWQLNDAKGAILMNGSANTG

Sequence of Tn6900 Cascade-TniQ, Cas8/5 A247Q+S248N Cas8/5 A247Q,S248N (Aeromonas salmonicida S44) (chain, as listed by the source A247Q S248N A247Q S248N, chain 2 of 2): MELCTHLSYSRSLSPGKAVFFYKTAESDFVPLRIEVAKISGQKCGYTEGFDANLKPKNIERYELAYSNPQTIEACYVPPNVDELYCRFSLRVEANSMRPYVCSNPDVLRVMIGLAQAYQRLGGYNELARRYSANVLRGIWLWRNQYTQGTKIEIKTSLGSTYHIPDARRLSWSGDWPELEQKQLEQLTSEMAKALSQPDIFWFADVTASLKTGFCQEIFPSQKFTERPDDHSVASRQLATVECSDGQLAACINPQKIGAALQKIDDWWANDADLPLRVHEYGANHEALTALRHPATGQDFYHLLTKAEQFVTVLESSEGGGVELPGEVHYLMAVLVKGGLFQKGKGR
Sequence of Tn6900 Cascade-TniQ, Cas8/5 A247Q+S248N Cas8/5 A247Q,S248N (Aeromonas salmonicida S44) (chain, as listed by the source A247Q S248N A247Q S248N, chain 3 of 2): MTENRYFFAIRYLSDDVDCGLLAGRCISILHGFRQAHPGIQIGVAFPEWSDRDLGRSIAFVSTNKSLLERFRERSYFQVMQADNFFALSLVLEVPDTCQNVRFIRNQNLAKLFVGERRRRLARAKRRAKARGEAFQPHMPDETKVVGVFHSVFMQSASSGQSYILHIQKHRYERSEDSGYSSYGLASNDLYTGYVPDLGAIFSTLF
Sequence of Tn6900 Cascade-TniQ wild type (with TnsABC) (Aeromonas salmonicida S44) (chain, as listed by the source, chain 2 of 2): as the sequence (chain, as listed by the source A247Q S248N A247Q S248N, chain 2 of 2) above
Sequence of Tn6900 Cascade-TniQ wild type (with TnsABC) (Aeromonas salmonicida S44) (chain, as listed by the source, chain 3 of 2): as the sequence (chain, as listed by the source A247Q S248N A247Q S248N, chain 3 of 2) above

Molecule: PA14 crRNA-ffs ; CC-PAM ffs target
- enrichment after interference (depletion) (enrichment (depletion)) [1]: < 0.005

Molecule: atypical crRNA ffs (60 nt) ; CC-PAM ffs target
- binding signal (fold enrichment) [2]: 3

Molecule: atypical crRNA ffs (60 nt) ; NN-PAM ffs plasmid pool
- share of transposition events at PAMs with -1 C (% of events with C at -1) [3]: > 50

B1: TniQ subunit (monomer) of the TniQ homo-dimer (other)
chain: MHLLVRPEPFADEALESYFLRLSQENGFERYRIFSGSVQDWLHTTDHAAAGAFPLELSRLNIFHASRSSGLRVRALQLVDRLTDGAPFRLLQLALCHSAISFGNHYKAVHRSGVDIPLSFIRVHQIPCCPDCLRESAYVRQCWHFKPYVGCHRHGGRLIYSCPACGESLNYLASESINHCQCGFDLRTASTVPAQPDEIQLSALAYGCSFESSNPLLAIGSLSARFGALYWYQQRYLSDHEAVRDDRALTKAIGHFTAWPDAFWRELQQMVDDALVRQTKPLNHTDFVDVFGSVVADCRQIPMRNTGQNFILKNLIGFLTDLVARHPQCRVANVGDLLLSAVDAATLLSTSVEQVRRLHHEGFLPLSIRPASRNTVSPHRAVFHLRHVVELRQARMQSHHDHSSTYLPAW
notes: One chain of the dimer, entered to record the self-association of TniQ; also called TniQ.1; TniQ.2; not shown: His6 tag named only in the plasmid name (pCOLADuet-1-His6-tniQ)
- binding result [4]: binds

B2: TniQ transposition protein of the I-F3b element Tn6900 (Aeromonas salmonicida S44), homo-dimer as associated with Cascade (other)
chain: B1 chain
notes: Expressed in E. coli together with Cascade and purified as the Cascade-TniQ complex over Ni-NTA through the His6 tag on TniQ; also called His6-TniQ; TniQ dimer; not shown: His6 tag named only in the plasmid name (pCOLADuet-1-His6-tniQ)
- binding result [5]: binds
